{"source": "patent US20080292662A1", "biological_target": "Rhodanese (Sigma), denatured in 8 M urea (UniProt P00586)", "sequence (P00586 2-297 limits assumed)": "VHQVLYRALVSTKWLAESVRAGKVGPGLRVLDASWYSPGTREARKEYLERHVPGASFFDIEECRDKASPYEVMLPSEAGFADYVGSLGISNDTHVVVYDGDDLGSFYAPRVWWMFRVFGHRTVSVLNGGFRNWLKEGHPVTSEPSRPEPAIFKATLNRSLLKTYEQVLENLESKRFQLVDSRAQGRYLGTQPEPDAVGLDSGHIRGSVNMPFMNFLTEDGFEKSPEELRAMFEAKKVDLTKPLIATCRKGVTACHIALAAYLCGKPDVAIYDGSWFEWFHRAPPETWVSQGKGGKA", "assay": "cell-based or functional assay"}
{"substance": "Histidine-tagged ClpL of Streptococcus pneumoniae (from pKHY004, expressed in E. coli)", "values": [{"measurement": "Rhodanese activity (%) after refolding with ClpL 90 Nm", "value": 9, "unit": "%"}]}
